Laboratory results as given in patent US5847076A, “Regulators of the proteasome” (Board of Regents, The University of Texas System, priority 1993, dated 1998).
One block for each molecule: values may come before it. Ends that are not written are not given here.

How the values were obtained:
[1] = target: T1, proteasome; assay: Binding of PA28 carboxy-terminal peptides to the proteasome
T1 construct: from tissue
Source text: (§1) Therefore, this peptide or a compound with similar properties may be used to block the action of the proteasome in intact cells. Such a compound or analogs having similar binding activity may be used to control accelerated rates of intracellular protein degradation. The peptide has the sequence: Acetyl-KNFEKLKKPRGETKGMIY (SEQ ID NO. 3). The N-terminal lysine may be acetylated if needed for stability. […] Therefore, the C-terminal Ile-Tyr amino acids or their functional equivalents appear to be important for binding of the 18-mer to the proteasome and for inhibition of the activation of the proteasome by activating factors PA28 and PA700. An equivalent of the 18-mer may comprise less than 18 amino acids or may comprise functionally equivalent amino acid replacements which allow similar binding activity.

[2] = target: T2, proteasome activation by PA700; assay: Inhibition of proteasome activation by PA700 by C18 peptide; format: biochemical; details: for inhibition of proteasome activation by PA700: FIG. 27; for effect of peptide alone on proteasome activity: no activator
T2 construct: from tissue
Method: Activation of the proteasome by PA700 was performed in the presence of the indicated concentrations of purified C18 peptide.
as §1

[3] = target: T3, proteasome activation by PA28; assay: Inhibition of PA28-activated proteasome by carboxy-terminal peptide; format: biochemical; details: 0.5 μg proteasome, 1 μg PA28 (FIG. 26)
T3 construct: from tissue
Method: Proteasome activity in the absence of PA28 was 1.2 units/assays. Assays contained 0.5 μg of proteasome and 1 μg of PA28.
as §1

[4] = tested on: proteasome (latent and active forms); details: cited from earlier work
[5] = listed as 18 amino acid peptide

binding to the proteasome [1]: does bind to it
effect of peptide alone on proteasome activity [2, 5]: does not activate the proteasome
inhibition of proteasome activation by PA28 [3]: inhibition of PA28-activated proteasome
Molecule: Acetyl-KNFEKLKKPRGETKGMIY (Ac-KNFEKLKKPRGETKGMIY) [C18, 18 amino acid peptide corresponding to the carboxyterminal 18 amino acids of PA28]
inhibition of proteasome activation by PA700 [2]: competitively inhibits proteasome activation by PA700
inhibition of proteasome activation by PA700 [2, 5]: competitively inhibits the binding and activation of proteasome activator, PA700
effect of peptide alone on proteasome activity [2]: had no effect on baseline proteasome activity
inhibition of proteasome activation by PA28 [3, 5]: competitively inhibits binding and activation of PA28

B1: PI31: inhibitor protein of the proteasome purified from bovine red blood cells, Mr=31,000 subunit (protein, UniProt Q3SX30 2-270, looked up)
Proteasome inhibitor PI31 …: AGLEVLFASAAPAITCAQDALVCFLHWEVVTHGYYGLGAGDQPGPNDKKSELLPVEWNSNKDLYVLRYESKDGSRKLLVKAVTVENSMIINVLEHGSQQVSDLTLNLNDYIDSEHLVDFHRVYKNSEELRSRIVSGIITPIHEQWEKANLSPHREFPPATAREVDPLRIHPQHPHTSRQPTWCDPLGPFAVGGEDLDPFGCRRGGMIVDPLRSGFPRALIDPSSGLPNRLPPGAVPPGARFDPFGPIGTSPSGPNPDHLPPPGYDDMYL
inhibition of peptidase and protease activities of the proteasome [4]: inhibited all of the peptidase and protease activities of both the latent and active forms of the proteasome by a non-competitive mechanism
